# Source: publication PMC9243173, “Iron-regulated assembly of the cytosolic iron–sulfur cluster biogenesis machinery” (The Journal of Biological Chemistry, 2022)
# B1: nucleotide-binding protein 2 (NUBP2), endogenous (natural protein, human (endogenous in Flp-In T-REx 293), UniProt Q9Y5Y2 1-271, looked up)
# chain: MEAAAEPGNLAGVRHIILVLSGKGGVGKSTISTELALALRHAGKKVGILDVDLCGPSIPRMLGAQGRAVHQCDRGWAPVFLDREQSISLMSVGFLLEKPDEAVVWRGPKKNALIKQFVSDVAWGELDYLVVDTPPGTSDEHMATIEALRPYQPLGALVVTTPQAVSVGDVRRELTFCRKTGLRVMGIVENMSGFTCPHCTECTSVFSRGGGEELAQLAGVPFLGSVPLDPALMRTLEEGHDFIQEFPGSPAFAALTSIAQKILDATPACLP
# notes: also called CFD1; source: endogenous, Flp-In T-REx 293 lysate
# B2: cytosolic iron-sulfur assembly component 2B (CIAO2B) (natural protein, human (endogenous in Flp-In T-REx 293), UniProt Q9Y3D0 1-163, looked up)
# chain: MVGGGGVGGGLLENANPLIYQRSGERPVTAGEEDEQVPDSIDAREIFDLIRSINDPEHPLTLEELNVVEQVRVQVSDPESTVAVAFTPTIPHCSMATLIGLSIKVKLLRSLPQRFKMDVHITPGTHASEHAVNKQLADKERVAAALENTHLLEVVNQCLSARS
# notes: CIAO2B (cytosolic iron-sulfur assembly component 2B), component of the CIA targeting complex, endogenous; source: endogenous, Flp-In T-REx 293 lysate
# B3: nucleotide-binding protein 1 (NUBP1) (natural protein, human (endogenous in Flp-In T-REx 293), UniProt P53384 1-320, looked up)
# chain: MEEVPHDCPGADSAQAGRGASCQGCPNQRLCASGAGATPDTAIEEIKEKMKTVKHKILVLSGKGGVGKSTFSAHLAHGLAEDENTQIALLDIDICGPSIPKIMGLEGEQVHQSGSGWSPVYVEDNLGVMSVGFLLSSPDDAVIWRGPKKNGMIKQFLRDVDWGEVDYLIVDTPPGTSDEHLSVVRYLATAHIDGAVIITTPQEVSLQDVRKEINFCRKVKLPIIGVVENMSGFICPKCKKESQIFPPTTGGAELMCQDLEVPLLGRVPLDPLIGKNCDKGQSFFIDAPDSPATLAYRSIIQRIQEFCNLHQSKEENLISS
# notes: also called NBP35; source: endogenous, Flp-In T-REx 293 lysate
# B4: MMS19 nucleotide excision repair protein homolog (MMS19) (natural protein, human (endogenous in Flp-In T-REx 293), UniProt Q96T76 1-1030, looked up)
# chain: MAAAAAVEAAAPMGALWGLVHDFVVGQQEGPADQVAADVKSGNYTVLQVVEALGSSLENPEPRTRARAIQLLSQVLLHCHTLLLEKEVVHLILFYENRLKDHHLVIPSVLQGLKALSLCVALPPGLAVSVLKAIFQEVHVQSLPQVDRHTVYNIITNFMRTREEELKSLGADFTFGFIQVMDGEKDPRNLLVAFRIVHDLISRDYSLGPFVEELFEVTSCYFPIDFTPPPNDPHGIQREDLILSLRAVLASTPRFAEFLLPLLIEKVDSEVLSAKLDSLQTLNACCAVYGQKELKDFLPSLWASIRREVFQTASERVEAEGLAALHSLTACLSRSVLRADAEDLLDSFLSNILQDCRHHLCEPDMKLVWPSAKLLQAAAGASARACDSVTSNVLPLLLEQFHKHSQSSQRRTILEMLLGFLKLQQKWSYEDKDQRPLNGFKDQLCSLVFMALTDPSTQLQLVGIRTLTVLGAQPDLLSYEDLELAVGHLYRLSFLKEDSQSCRVAALEASGTLAALYPVAFSSHLVPKLAEELRVGESNLTNGDEPTQCSRHLCCLQALSAVSTHPSIVKETLPLLLQHLWQVNRGNMVAQSSDVIAVCQSLRQMAEKCQQDPESCWYFHQTAIPCLLALAVQASMPEKEPSVLRKVLLEDEVLAAMVSVIGTATTHLSPELAAQSVTHIVPLFLDGNVSFLPENSFPSRFQPFQDGSSGQRRLIALLMAFVCSLPRNVEIPQLNQLMRELLELSCCHSCPFSSTAAAKCFAGLLNKHPAGQQLDEFLQLAVDKVEAGLGSGPCRSQAFTLLLWVTKALVLRYHPLSSCLTARLMGLLSDPELGPAAADGFSLLMSDCTDVLTRAGHAEVRIMFRQRFFTDNVPALVQGFHAAPQDVKPNYLKGLSHVLNRLPKPVLLPELPTLLSLLLEALSCPDCVVQLSTLSCLQPLLLEAPQVMSLHVDTLVTKFLNLSSSPSMAVRIAALQCMHALTRLPTPVLLPYKPQVIRALAKPLDDKKRLVRKEAVSARGEWFLLGSPGS
# notes: MMS19 nucleotide excision repair protein homolog, component of the CIA targeting complex, endogenous; source: endogenous, Flp-In T-REx 293 lysate
# B5: probable cytosolic iron-sulfur protein assembly protein CIAO1 (natural protein)
# chain: not shown
# notes: CIAO1, component of the CIA targeting complex, endogenous; source: endogenous, Flp-In T-REx 293 lysate
# How the values were obtained:
# Assay in all cases: affinity purification with mass spectrometry; anti-HA beads on lysates of Flp-In 293 cells expressing the 3HA-3FLAG-tagged bait (NUBP2, wildtype or mutant CIAO3); targeted proteomics assay (parallel reaction monitoring) of CIA components and substrates; CIAO3 purifications normalised to CIAO3; wildtype CIAO3 cells also treated with FAC or DFO for 8 h
# Details in all cases: partners not purified
# [1] = biological target: T1, 3HA-3FLAG-CIAO3, wildtype (human, UniProt Q9H6Q4 1-476)
# T1 construct: human CIAO3 (NARFL) cDNA, amplified with primers from the start codon to the stop codon, in pcDNA5/FRT with an N-terminal tandem 3xHA-3xFLAG tag; also called 3HA-3FLAG-tagged CIAO3; wildtype CIAO3; source: Flp-In T-REx 293, stably expressed, induced with doxycycline, in lysate; not shown: 3xHA, N-terminal, kept; 3xFLAG, N-terminal, kept
# T1 sequence (Q9H6Q4 whole entry): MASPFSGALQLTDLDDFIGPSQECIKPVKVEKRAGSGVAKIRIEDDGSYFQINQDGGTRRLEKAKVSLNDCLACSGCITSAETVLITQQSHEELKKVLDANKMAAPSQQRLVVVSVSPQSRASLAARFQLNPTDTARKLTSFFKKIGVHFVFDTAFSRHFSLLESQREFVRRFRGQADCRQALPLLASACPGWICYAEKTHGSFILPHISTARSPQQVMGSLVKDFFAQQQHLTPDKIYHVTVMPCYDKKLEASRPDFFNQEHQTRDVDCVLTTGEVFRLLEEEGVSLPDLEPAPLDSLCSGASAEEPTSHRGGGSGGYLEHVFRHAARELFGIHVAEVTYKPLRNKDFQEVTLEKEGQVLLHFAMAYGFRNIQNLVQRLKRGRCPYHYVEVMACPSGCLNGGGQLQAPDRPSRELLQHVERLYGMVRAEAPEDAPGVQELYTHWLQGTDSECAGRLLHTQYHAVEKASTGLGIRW
# [2] = biological target: T2, 3HA-3FLAG-CIAO3-C71S (human, UniProt Q9H6Q4 1-476, C71S)
# T2 construct: human CIAO3 (NARFL), as m13, with C71S (N-terminal Fe-S cluster site); also called C71S mutant; source: Flp-In T-REx 293, stably expressed, induced with doxycycline, in lysate; not shown: 3xHA, N-terminal, kept; 3xFLAG, N-terminal, kept
# T2 sequence (Q9H6Q4 whole entry C71S): as the sequence (Q9H6Q4 whole entry) above, with C71S counted along it
# [3] = biological target: T3, 3HA-3FLAG-CIAO3-C190S/C395S (human, UniProt Q9H6Q4 1-476, C190S | C395S)
# T3 construct: human CIAO3 (NARFL), as m13, with C190S and C395S (C-terminal Fe-S cluster site); also called C190S/C395S mutant; source: Flp-In T-REx 293, stably expressed, induced with doxycycline, in lysate; not shown: 3xHA, N-terminal, kept; 3xFLAG, N-terminal, kept
# T3 sequence (Q9H6Q4 whole entry C190S/C395S): as the sequence (Q9H6Q4 whole entry) above, with C190S, C395S counted along it
# [4] = biological target: T4, 3HA-3FLAG-CIAO3-C71S/C190S/C395S (human, UniProt Q9H6Q4 1-476, C71S | C190S | C395S)
# T4 construct: human CIAO3 (NARFL), as m13, with C71S, C190S and C395S; also called C71S/C190S/C395S mutant; source: Flp-In T-REx 293, stably expressed, induced with doxycycline, in lysate; not shown: 3xHA, N-terminal, kept; 3xFLAG, N-terminal, kept
# T4 sequence (Q9H6Q4 whole entry C71S/C190S/C395S): as the sequence (Q9H6Q4 whole entry) above, with C71S, C190S, C395S counted along it
Binder,fold reduction in iron-deficient (DFO) against iron-replete (FAC) conditions [1] [fold],fold reduction against wildtype CIAO3 [2] [fold],fold reduction against wildtype CIAO3 [3] [fold],fold reduction against wildtype CIAO3 [4] [fold],fold decrease against wildtype CIAO3 [2] [fold],fold change against wildtype CIAO3 [4] [fold]
B1,~4,> 32,> 32,> 32,–,–
B2,–,–,–,–,~5,2
B3,~4,> 32,> 32,> 32,–,–
B4,–,–,–,–,~5,2
B5,–,–,–,–,~5,2
